Reference: patent US20080299132A1, “Synergistic compositions for treating HIV-1” (Roche Palo Alto LLC, priority 2006, published 2008)

Columns and labels:
CCR5 [1] = molecular target: T1, CCR5 (Homo sapiens, UniProt P51681); conditions: cited from earlier work
CCR5 [2] = molecular target: T1, CCR5; assay: Drug interaction (synergy) analysis of two-drug combinations in the CCF assay (Greco and Prichard models); format: cell-based; parameters: host or cells: CEM-NKr-CCR5-Luc
Description: For the in vitro cell-cell fusion studies, the possibility of either enhanced (synergy) or reduced (antagonism) efficacy of CCR5 antibodies in combination with CCR5 antagonists was considered.
The concentration response surface approach described by Greco et al. (Cancer Res. 1990 50:5318-5327) was used to analyze the data. A seven-parameter non-linear model (i) was fit to all experimental data including percent inhibitions calculated from replicates for all concentrations of the two drugs alone and in combination from two 384-well plates. […]
Loewe additivity or no interaction is indicated when the 95% confidence interval of a includes 0. Furthermore, the predicted additivity of the drugs combined was calculated by using all estimated parameters of the Greco model, except a that is fixed at 0. […]
Theoretical additive interactions were calculated from the dose response curves of the individual drugs based on the Bliss Independence equation. […]
The total sum of differences between the observed percent inhibitions and the upper bound of 95% confidence interval of predicted additive percentages is calculated as a statistically significant synergy volume ΣSYN. The total sum of differences between the observed percent inhibitions and the lower bound of 95% confidence interval of predicted additive percentages is calculated as a statistically significant antagonism volume ΣANT. […]

CCR5 [3] = molecular target: T1, CCR5; assay: 3H-MVC binding to CHO-CCR5 cells after pre-incubation with CCR5 mAbs; conditions: CHO-CCR5 cells preincubated with 30 μg/mL mAb, 26 nM 3H-MVC
Procedure: The cells (2×10^5/100 μL) were pre-incubated with 30 μg/mL of CCR5 mAbs or PBS at RT for 1 h, then incubated with 26 nM of ^3H-MVC. At the end of various time points, cells were washed and the membrane bound ^3H-MVC was measured as described in Example 2. The maximal counts from the control samples were set as 100% binding and the relative binding for all other samples were calculated and the time course curves were generated based on these relative binding at each time point.
(§1) The potential for synergism should be maximized when both the antibody and the low molecular weight antagonist (or fusion or attachment inhibitor) can bind independently to the CCR5 receptor.

CCR5 [4] = molecular target: T1, CCR5; assay: CCR5 mAb binding to CHO-CCR5 cells after pre-incubation with CCR5 antagonists (FACS); conditions: pre-incubation with 50 nM MVC, AK602 or SCH-D, RT 1 h
Description: FIG. 4—The graph illustrates the effect of CCR5 antagonists on the time course of 5 mAb binding. […] The time course curves for each mAb in the presence of various antagonists were created based on their mean fluorescence intensity (MFI) values.
as §1

T1 sequence (P51681 whole entry): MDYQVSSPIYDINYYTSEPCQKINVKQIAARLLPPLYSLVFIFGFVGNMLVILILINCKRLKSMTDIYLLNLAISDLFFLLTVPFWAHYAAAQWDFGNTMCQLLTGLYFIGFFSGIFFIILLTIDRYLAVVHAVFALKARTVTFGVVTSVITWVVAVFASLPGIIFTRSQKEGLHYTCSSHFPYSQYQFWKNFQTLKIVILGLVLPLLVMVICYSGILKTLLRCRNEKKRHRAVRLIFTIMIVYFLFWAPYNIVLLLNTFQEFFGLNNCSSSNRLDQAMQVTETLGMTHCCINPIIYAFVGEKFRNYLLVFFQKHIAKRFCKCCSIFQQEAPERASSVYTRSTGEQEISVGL

## CCCCN1C(=O)[C@@H]([C@H](O)C2CCCCC2)NC(=O)C12CCN(Cc1ccc(Oc3ccc(C(=O)O)cc3)cc1)CC2 [AK602, reference compound]
CCR5 [1]
  effect on the binding of mAb 45523, in words: completely blocked
CCR5 [2]; combination in cell-cell fusion assay
  drug interaction in words (synergy / antagonism): highest synergy

B1: RoAb13: mouse anti-human CCR5 monoclonal antibody (Roche), binds the N-terminal end of CCR5 (antibody, V domains shown)
VH: EVKLVESGGGLVKPGGSLKLSCAASGFTFSTYAMSWVRQTPEKRLEWVASISTGDNTYYTDSVRGRFTISRDNARNILYLQMSSLRSEDTAMYFCTRGRGDRGDLFGYWGQGTLVTVSS
VL: DIVMSQSPSSLAVSVGEKVTMSCKSSQSLLYRGNQMNYLAWYQQKPGQSPKLLIYWASTRESGVPDRFTGSGSGTEFTLTISSVKAEDLTVYYCQQYYTYPRTFGGGTKLEIKR
CCR5 [3]
  effect on MVC binding, in words: no effect
CCR5 [4]
  mAb binding to CHO-CCR5 cells, effect of CCR5 antagonists, in words: unaffected
CCR5 [2]; combination with MVC
  higher synergy than ROAb14 when combined with MVC: approximately 60%
